Measured values taken from patent publication US20030200558A1 (MONSANTO, published 2003).

B1: β-conglycinin β subunit mutant 39335-17 (other)
chain: MDYKDDDDKLKVREDENNPFYLRSSNSFQTLFENQNGRIRLIQRFNKRSPQLENLRDYRIVQIQSKPNTIILPHHADADFIIIILSGRAILTLVNNDDRDSYNIHPGDAIRIPAGTTYYIINPHDHQNLKIIKIAIPVNKPGRYDDFFLSSTQAQQSYLQGFSHNILETSFHSEFEEINRVLLGEEEEQRQQEGVIVELSKEQIRQLSRRAKSSSRKTISSEDEPFNLRSRNPIYSNNFGKIFEITPEKTPQLRDLDIFISSVDINEGALILPHFNSKAIVILVINEGDANIEIVGIKEQQQKQKQEEEPLEVQRYRAELSEDDIIVIPAAYPFVVNATSNLNIIAIGINAENNQRNFLAGEKDNVVRQIERQVQELAFPGSAQDVERLLKKQRESYFVDAQPQQKEEGSKGRKGPFPSILGALY
B2: β-conglycinin β subunit mutant 39335-27 (other)
chain: MDYKDDDDKLKVREDENNPFYLRSSNSFQTLFENQNGRIRLIQRFNKRSPQLENLRDYRIVQIQSKPNTIILPHHADADFIIIILSGRAIITLVNNDDRDSYNIHPGDAIRIPAGTTYYIINPHDHQNLKIIKIAIPVNKPGRYDDFFLSSTQAQQSYLQGFSHNILETSFHSEFEEINRVLLGEEEEQRQQEGVIVELSKEQIRQLSRRAKSSSRKTISSEDEPFNLRSRNPIYSNNFGKIFEITPEKTPQLRDLDIFISSVDINEGALILPHFNSKAIVILVINEGDANIEIVGIKEQQQKQKQEEEPLEVQRYRAELSEDDIIVIPAAYPFVINATSNLNFLAFGINAENNQRNFLAGEKDNVVRQIERQVQELAFPGSAQDVERLLKKQRESYFVDAQPQQKEEGSKGRKGPFPSILGALY
B3: β-conglycinin β subunit mutant 39335-19 (other)
chain: MDYKDDDDKLKVREDENNPFYLRSSNSFQTLFENQNGRIRLIQRFNKRSPQLENLRDYRIVQIQSKPNTIILPHHADADFIIIILSGRAIITLVNNDDRDSYNIHPGDAIRIPAGTTYYIINPHDHQNLKIIKIAIPVNKPGRYDDFFLSSTQAQQSYLQGFSHNILETSFHSEFEEINRVLLGEEEEQRQQEGVIVELSKEQIRQLSRRAKSSSRKTISSEDEPFNLRSRNPIYSNNFGKIFEITPEKTPQLRDLDIFISSVDINEGALILPHFNSKAIVILVINEGDANIEIVGIKEQQQKQKQEEEPLEVQRYRAELSEDDIIVIPAAYPFVVNATSNLNIIAIGINAENNQRNFLAGEKDNVVRQIERQVQELAFPGSAQDVERLLKKQRESYFVDAQPQQKEEGSKGRKGPFPSILGALY
B4: β-conglycinin β subunit mutant 39335-22 (other)
chain: MDYKDDDDKLKVREDENNPFYLRSSNSFQTLFENQNGRIRLIQRFNKRSPQLENLRDYRIVQIQSKPNTIILPHHADADFIIIILSGRAIITIVNNDDRDSYNIHPGDAIRIPAGTTYYIINPHDHQNLKIIKIAIPVNKPGRYDDFFLSSTQAQQSYLQGFSHNILETSFHSEFEEINRVLLGEEEEQRQQEGVIVELSKEQIRQLSRRAKSSSRKTISSEDEPFNLRSRNPIYSNNFGKIFEITPEKTPQLRDLDIFISSVDINEGALILPHFNSKAIVILVINEGDANIEIVGIKEQQQKQKQEEEPLEVQRYRAELSEDDIIVIPAAYPFVINATSNLNFLAFGINAENNQRNFLAGEKDNVVRQIERQVQELAFPGSAQDVERLLKKQRESYFVDAQPQQKEEGSKGRKGPFPSILGALY
B5: β-conglycinin β subunit mutant 39335-26 (other)
chain: MDYKDDDDKLKVREDENNPFYLRSSNSFQTLFENQNGRIRLIQRFNKRSPQLENLRDYRIVQFQSKPNTIILPHHADADFIIIILSGRAILTLVNNDDRDSYNIHPGDAQRIPAGTTYYIINPHDHQNLKIIKIAIPVNKPGRYDDFFLSSTQAQQSYLQGFSHNILETSFHSEFEEINRVLLGEEEEQRQQEGVIVELSKEQIRQLSRRAKSSSRKTISSEDEPFNLRSRNPIYSNNFGKFFEITPEKTPQLRDLDIFLSSVDINEGALLLPHFNSKAIVILVINEGDANIELVGIKEQQQKQKQEEEPLEVQRYRAELSEDDIIVIPAAYPFVVNATSNLNIIAIGINAENNQRNFLAGEKDNVVRQIERQVQELAFPGSAQDVERLLKKQRESYFVDAQPQQKEEGSKGRKGPFPSILGALY
B6: β-conglycinin β subunit mutant 39335-28 (other)
chain: MDYKDDDDKLKVREDENNPFYLRSSNSFQTLFENQNGRIRLIQRFNKRSPQLENLRDYRIVQFQSKPNTIILPHHADADFIIIILSGRAIITLVNNDDRDSYNIHPGDAIRIPAGTTYYIINPHDHQNLKIIKIAIPVNKPGRYDDFFLSSTQAQQSYLQGFSHNILETSFHSEFEEINRVLLGEEEEQRQQEGVIVELSKEQIRQLSRRAKSSSRKTISSEDEPFNLRSRNPIYSNNFGKIFEITPEKTPQLRDLDIFISSVDINEGALILPHFNSKAIVILVINEGDANIEIVGIKEQQQKQKQEEEPLEVQRYRAELSEDDVFVIPAAYPFVVNATSNLNIIAIGINAENNQRNFLAGEKDNVVRQIERQVQELAFPGSAQDVERLLKKQRESYFVDAQPQQKEEGSKGRKGPFPSILGALY
B7: β-conglycinin β subunit mutant 39335-10 (other)
chain: MDYKDDDDKLKVREDENNPFYLRSSNSFQTLFENQNGRIRLIQRFNKRSPQLENLRDYIIVQFQSKPNTILLPHHADADFIIIILSGRAILTLVNNDDRDSYNLHPGIAQRIPAGTTYYIINPHDHQNLKIIKIAIPVNKPGRYDDFFLSSTQAQQSYLQGFSHNILETSFHSEFEEINRVLLGEEEEQRQQEGVIVELSKEQIRQLSRRAKSSSRKTISSEDEPFNLRSRNPIYSNNFGKIFEITPEKTPQLRDLDIFLSSVDINEGALLLPHFNSKAIVILVINEGDANIEIVGIKEQQQKQKQEEEPLEVQRYRAELSEDDVFVIPAAYPFVVNATSNLNFLAFGINAENNQRNFLAGEKDNVVRQIERQVQELAFPGSAQDVERLLKKQRESYIVDAQPQQKEEGSKGRKGPFPSILGALY
B8: β-conglycinin β subunit mutant 39335-12 (other)
chain: MDYKDDDDKLKVREDENNPFYLRSSNSFQTLFENQNGRIRLIQRFNKRSPQLENLRDYIIVQFQSKPNTIILPHHADADFIIIILSGRAILTLVNNDDRDSYNLHPGDAQRIPAGTTYYIINPHDHQNLKIIKIAIPVNKPGRYDDFFLSSTQAQQSYLQGFSHNILETSFHSEFEEINRVLLGEEEEQRQQEGVIVELSKEQIRQLSRRAKSSSRKTISSEDEPFNLRSRNPIYSNNFGKIFEITPEKTPQLRDLDIFLSSVDINEGALLLPHFNSKAIVILVINEGDANIEIVGIKEQQQKQKQEEEPLEVQRYRAELSEDDVFVIPAAYPFVVNATSNLNFLAFGINAENNQRNFLAGEKDNVVRQIERQVQELAFPGSAQDVERLLKKQRESYIVDAQPQQKEEGSKGRKGPFPSILGALY
B9: β-conglycinin β subunit mutant 39335-21 (other)
chain: MDYKDDDDKLKVREDENNPFYLRSSNSFQTLFENQNGRIRLIQRFNKRSPQLENLRDYRIVQIQSKPNTIILPHHADADFIIIILSGRAILTLVNNDDRDSYNIHPGDAQRIPAGTTYYIINPHDHQNLKIIKIAIPVNKPGRYDDFFLSSTQAQQSYLQGFSHNILETSFHSEFEEINRVLLGEEEEQRQQEGVIVELSKEQIRQLSRRAKSSSRKTISSEDEPFNLRSRNPIYSNNFGKFFEITPEKTPQLRDLDIFLSSVDINEGALILPHFNSKAIVILVINEGDANIEIVGIKEQQQKQKQEEEPLEVQRYRAELSEDDVFVIPAAYPFVINATSNLNFLAFGINAENNQRNFLAGEKDNVVRQIERQVQELAFPGSAQDVERLLKKQRESYFVDAQPQQKEEGSKGRKGPFPSILGALY
B10: β-conglycinin β subunit mutant 39335-25 (other)
chain: MDYKDDDDKLKVREDENNPFYLRSSNSFQTLFENQNGRIRLIQRFNKRSPQLENLRDYRIVQFQSKPNTIILPHHADADFIIIILSGRAIITLVNNDDRDSYNIHPGDAIRIPAGTTYYIINPHDHQNLKIIKIAIPVNKPGRYDDFFLSSTQAQQSYLQGFSHNILETSFHSEFEEINRVLLGEEEEQRQQEGVIVELSKEQIRQLSRRAKSSSRKTISSEDEPFNLRSRNPIYSNNFGKIFEITPEKTPQLRDLDIFISSVDINEGALILPHFNSKAIVILVINEGDANIEIVGIKEQQQKQKQEEEPLEVQRYRAELSEDDVFVIPAAYPFVVNATSNLNFLAFGINAENNQRNFLAGEKDNVVRQIERQVQELAFPGSAQDVERLLKKQRESYFVDAQPQQKEEGSKGRKGPFPSILGALY
B11: β-conglycinin β subunit mutant 39335-29 (other)
chain: MDYKDDDDKLKVREDENNPFYLRSSNSFQTLFENQNGRIRLIQRFNKRSPQLENLRDYRIVQFQSKPNTIILPHHADADFIIIILSGRAILTLVNNDDRDSYNIHPGDAQRIPAGTTYYIINPHDHQNLKIIKIAIPVNKPGRYDDFFLSSTQAQQSYLQGFSHNILETSFHSEFEEINRVLLGEEEEQRQQEGVIVELSKEQIRQLSRRAKSSSRKTISSEDEPFNLRSRNPIYSNNFGKIFEITPEKTPQLRDLDIFISSVDINEGALILPHFNSKAIVILVINEGDANIEIVGIKEQQQKQKQEEEPLEVQRYRAELSEDDVFVIPAAYPFVVNATSNLNIIAIGINAENNQRNFLAGEKDNVVRQIERQVQELAFPGSAQDVERLLKKQRESYFVDAQPQQKEEGSKGRKGPFPSILGALY
B12: β-conglycinin β subunit mutant 39335-13 (other)
chain: MDYKDDDDKLKVREDENNPFYLRSSNSFQTLFENQNGRIRLIQRFNKRSPQLENLRDYRIVQFQSKPNTIILPHHADADFIIIILSGRAILTLVNNDDRDSYNIHPGDAQRIPAGTTYYLVNPHDHQNLKIIKIAIPVNKPGRYDDFFLSSTQAQQSYLQGFSHNILETSFHSEFEEINRVLLGEEEEQRQQEGVIVELSKEQIRQLSRRAKSSSRKTISSEDEPFNLRSRNPIYSNNFGKIFEITPEKTPQLRDLDIFLSSVDINEGALLLPHFNSKAIVILVINEGDANIELVGIKEQQQKQKQEEEPLEVQRYRAELSEDDVFVIPAAYPFVVNATSNLNFLAFGINAENNQRNFLAGEKDNVVRQIERQVQELAFPGSAQDVERLLKKQRESYFVDAQPQQKEEGSKGRKGPFPSILGALY
B13: β-conglycinin β subunit mutant 39335-20 (other)
chain: MDYKDDDDKLKVREDENNPFYLRSSNSFQTLFENQNGRIRLIQRFNKRSPQLENLRDYRIVQIQSKPNTIILPHHADADFIIIILSGRAIITLVNNDDRDSYNIHPGDAIRIPAGTTYYIINPHDHQNLKIIKIAIPVNKPGRYDDFFLSSTQAQQSYLQGFSHNILETSFHSEFEEINRVLLGEEEEQRQQEGVIVELSKEQIRQLSRRAKSSSRKTISSEDEPFNLRSRNPIYSNNFGKIFEITPEKTPQLRDLDIFISSVDINEGALILPHFNSKAIVILVINEGDANIEIVGIKEQQQKQKQEEEPLEVQRYRAELSEDDVFVIPAAYPFVVNATSNLNFLAFGINAENNQRNFLAGEKDNVVRQIERQVQELAFPGSAQDVERLLKKQRESYFVDAQPQQKEEGSKGRKGPFPSILGALY

Biological target: the molecule itself
Assay: sucrose gradient sedimentation, anti-FLAG western (self-assembly)

Binding result, no binding:
B1
B2
B3
B4
B5
B6
B7
B8
B9
B10
B11
B12
B13
